Data published in patent publication US20140087995A1 (published 2014).
Numbered stars: 1 amine (or outer) side, 2 acyl side, 3 side chain; on linkers, the order of the positions; unused ones are H or OH. Bridge positions count the residues as written; N and C are the ends. Side chains are listed from the residue outwards. Ends that are not written are not given here. * marks the point of attachment. C20 diacid = O=C(O)CCCCCCCCCCCCCCCCCCC(=O)*; γGlu = O=C(O)[C@H](CCC(=O)[*:2])N[*:1]; AEEA = NCCOCCOCC(=O)O

T1: human calcitonin receptor (human, UniProt P30988 25-474)
T1 sequence (looked up): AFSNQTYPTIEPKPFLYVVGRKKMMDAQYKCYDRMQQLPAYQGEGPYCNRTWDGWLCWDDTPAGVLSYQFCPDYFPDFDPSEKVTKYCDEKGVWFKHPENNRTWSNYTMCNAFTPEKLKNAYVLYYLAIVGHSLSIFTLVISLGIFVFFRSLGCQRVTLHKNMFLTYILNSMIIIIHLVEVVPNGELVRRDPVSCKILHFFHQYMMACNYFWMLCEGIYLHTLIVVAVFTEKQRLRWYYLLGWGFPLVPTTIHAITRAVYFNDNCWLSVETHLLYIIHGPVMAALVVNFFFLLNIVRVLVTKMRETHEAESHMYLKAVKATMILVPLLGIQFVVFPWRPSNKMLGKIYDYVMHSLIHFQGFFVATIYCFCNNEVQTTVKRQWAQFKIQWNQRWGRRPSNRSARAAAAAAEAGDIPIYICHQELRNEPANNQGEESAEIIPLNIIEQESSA


Target: T1, human calcitonin receptor
Test: cell-based or functional assay

Row | Binder | hCTR funct. EC50 [nM]
1 | {C20 diacid-γGlu}-GRCNTATCATQRLAHFLRHSSPNFGAIPSSTNVGSNTY-NH2 (disulfide 3-8; SMILES CC[C@H](C)[C@H](NC(=O)[C@H](C)NC(=O)CNC(=O)[C@H](Cc1ccccc1)NC(=O)[C@H](CC(N)=O)NC(=O)[C@@H]1CCCN1C(=O)[C@H](CO)NC(=O)[C@H](CO)NC(=O)[C@H](Cc1c[nH]cn1)NC(=O)[C@H](CCCNC(=N)N)NC(=O)[C@H](CC(C)C)NC(=O)[C@H](Cc1ccccc1)NC(=O)[C@H](Cc1c[nH]cn1)NC(=O)[C@H](C)NC(=O)[C@H](CC(C)C)NC(=O)[C@H](CCCNC(=N)N)NC(=O)[C@H](CCC(N)=O)NC(=O)[C@@H](NC(=O)[C@H](C)NC(=O)[C@@H]1CSSC[C@H](NC(=O)[C@H](CCCNC(=N)N)NC(=O)CNC(=O)CC[C@H](NC(=O)CCCCCCCCCCCCCCCCCCC(=O)O)C(=O)O)C(=O)N[C@@H](CC(N)=O)C(=O)N[C@@H]([C@@H](C)O)C(=O)N[C@@H](C)C(=O)N[C@@H]([C@@H](C)O)C(=O)N1)[C@@H](C)O)C(=O)N1CCC[C@H]1C(=O)N[C@@H](CO)C(=O)N[C@@H](CO)C(=O)N[C@H](C(=O)N[C@@H](CC(N)=O)C(=O)N[C@H](C(=O)NCC(=O)N[C@@H](CO)C(=O)N[C@@H](CC(N)=O)C(=O)N[C@H](C(=O)N[C@@H](Cc1ccc(O)cc1)C(N)=O)[C@@H](C)O)C(C)C)[C@@H](C)O, also called compound 99) | 0.818
2 | K([AEEA-C20 diacid])CNTATCATQRLAHFLRHSSPNFGAIPSSTNVGSNTY-NH2 (disulfide 2-7; N-terminus assumed; SMILES CC[C@H](C)[C@H](NC(=O)[C@H](C)NC(=O)CNC(=O)[C@H](Cc1ccccc1)NC(=O)[C@H](CC(N)=O)NC(=O)[C@@H]1CCCN1C(=O)[C@H](CO)NC(=O)[C@H](CO)NC(=O)[C@H](Cc1c[nH]cn1)NC(=O)[C@H](CCCNC(=N)N)NC(=O)[C@H](CC(C)C)NC(=O)[C@H](Cc1ccccc1)NC(=O)[C@H](Cc1c[nH]cn1)NC(=O)[C@H](C)NC(=O)[C@H](CC(C)C)NC(=O)[C@H](CCCNC(=N)N)NC(=O)[C@H](CCC(N)=O)NC(=O)[C@@H](NC(=O)[C@H](C)NC(=O)[C@@H]1CSSC[C@H](NC(=O)[C@@H](N)CCCCNC(=O)COCCOCCNC(=O)CCCCCCCCCCCCCCCCCCC(=O)O)C(=O)N[C@@H](CC(N)=O)C(=O)N[C@@H]([C@@H](C)O)C(=O)N[C@@H](C)C(=O)N[C@@H]([C@@H](C)O)C(=O)N1)[C@@H](C)O)C(=O)N1CCC[C@H]1C(=O)N[C@@H](CO)C(=O)N[C@@H](CO)C(=O)N[C@H](C(=O)N[C@@H](CC(N)=O)C(=O)N[C@H](C(=O)NCC(=O)N[C@@H](CO)C(=O)N[C@@H](CC(N)=O)C(=O)N[C@H](C(=O)N[C@@H](Cc1ccc(O)cc1)C(N)=O)[C@@H](C)O)C(C)C)[C@@H](C)O, also called compound 90) [N^ε1-[2-[2-[2-(19-carboxynonadecanoylamino)ethoxy]ethoxy]acetyl]-[His14,Arg17,Pro21,Pro27]-h-amylin] | 0.236

Now from value to binder:

Row | hCTR funct. EC50 [nM] | Binder
3 | 2.38 | K([γGlu-γGlu-C20 diacid])CNTATCATQRLAHFLRHSSPNFGAIPSSTNVGSNTY-NH2 (disulfide 2-7; N-terminus assumed; SMILES CC[C@H](C)[C@H](NC(=O)[C@H](C)NC(=O)CNC(=O)[C@H](Cc1ccccc1)NC(=O)[C@H](CC(N)=O)NC(=O)[C@@H]1CCCN1C(=O)[C@H](CO)NC(=O)[C@H](CO)NC(=O)[C@H](Cc1c[nH]cn1)NC(=O)[C@H](CCCNC(=N)N)NC(=O)[C@H](CC(C)C)NC(=O)[C@H](Cc1ccccc1)NC(=O)[C@H](Cc1c[nH]cn1)NC(=O)[C@H](C)NC(=O)[C@H](CC(C)C)NC(=O)[C@H](CCCNC(=N)N)NC(=O)[C@H](CCC(N)=O)NC(=O)[C@@H](NC(=O)[C@H](C)NC(=O)[C@@H]1CSSC[C@H](NC(=O)[C@@H](N)CCCCNC(=O)CC[C@H](NC(=O)CC[C@H](NC(=O)CCCCCCCCCCCCCCCCCCC(=O)O)C(=O)O)C(=O)O)C(=O)N[C@@H](CC(N)=O)C(=O)N[C@@H]([C@@H](C)O)C(=O)N[C@@H](C)C(=O)N[C@@H]([C@@H](C)O)C(=O)N1)[C@@H](C)O)C(=O)N1CCC[C@H]1C(=O)N[C@@H](CO)C(=O)N[C@@H](CO)C(=O)N[C@H](C(=O)N[C@@H](CC(N)=O)C(=O)N[C@H](C(=O)NCC(=O)N[C@@H](CO)C(=O)N[C@@H](CC(N)=O)C(=O)N[C@H](C(=O)N[C@@H](Cc1ccc(O)cc1)C(N)=O)[C@@H](C)O)C(C)C)[C@@H](C)O, also called compound 92)
4 | 1.73 | {C20 diacid-γGlu}-GRCNTATCATQRLAHFLRHSSPNFGAIPSSTNVGHNTY-NH2 (disulfide 3-8; SMILES CC[C@H](C)[C@H](NC(=O)[C@H](C)NC(=O)CNC(=O)[C@H](Cc1ccccc1)NC(=O)[C@H](CC(N)=O)NC(=O)[C@@H]1CCCN1C(=O)[C@H](CO)NC(=O)[C@H](CO)NC(=O)[C@H](Cc1c[nH]cn1)NC(=O)[C@H](CCCNC(=N)N)NC(=O)[C@H](CC(C)C)NC(=O)[C@H](Cc1ccccc1)NC(=O)[C@H](Cc1c[nH]cn1)NC(=O)[C@H](C)NC(=O)[C@H](CC(C)C)NC(=O)[C@H](CCCNC(=N)N)NC(=O)[C@H](CCC(N)=O)NC(=O)[C@@H](NC(=O)[C@H](C)NC(=O)[C@@H]1CSSC[C@H](NC(=O)[C@H](CCCNC(=N)N)NC(=O)CNC(=O)CC[C@H](NC(=O)CCCCCCCCCCCCCCCCCCC(=O)O)C(=O)O)C(=O)N[C@@H](CC(N)=O)C(=O)N[C@@H]([C@@H](C)O)C(=O)N[C@@H](C)C(=O)N[C@@H]([C@@H](C)O)C(=O)N1)[C@@H](C)O)C(=O)N1CCC[C@H]1C(=O)N[C@@H](CO)C(=O)N[C@@H](CO)C(=O)N[C@H](C(=O)N[C@@H](CC(N)=O)C(=O)N[C@H](C(=O)NCC(=O)N[C@@H](Cc1c[nH]cn1)C(=O)N[C@@H](CC(N)=O)C(=O)N[C@H](C(=O)N[C@@H](Cc1ccc(O)cc1)C(N)=O)[C@@H](C)O)C(C)C)[C@@H](C)O, also called compound 100)
